# Experiment: soluble on expression in E. coli; label from the status in PepcDB or PDB records
row,Sequence,soluble on expression in E. coli
1,MGSDKIHHHHHHVGTGDGNAIWPIRSVHLIGAIYPHILEELMLNTVILYSTVDGQTLAICQKIKQILVEQGEQVSVVNLAEVEADDLASVDKVVIGASIRYGKHRPELFKFVEQHKVLLDTKHNSFFSVNVVARKPEKNTPETNPYMQKFSNLSAWKPQLLGVFAGKIDYPRYRFFDKFMIRFIMWMTKGPTDTQGTFEFTDWGKVDDYAKQIAAQK,not soluble
2,MGSDKIHHHHHHVIRRKKEADMQLPDAWDWESGERTIMASTAPQEGHLWQEELQASPDGERFAAVTALDETTFSLRINDQTQEATYDKIWLPRFSPDGRLTALVQEDGEWTMLVEEEAWPGHYGYLWSTMFGPSGDIAAPAQQDGEYGMVLNGTPWETLYENANNYCISPAGGKTAAVVQTRSMGQADVATFQEGIYSVAVNGEAWPVNFVNCWTPVFSADGRRVAVQVRRNLHDYTIAVDGTPWTINYQCVWEPCFHPSSGGVAAPVRQNGMWGVALDGQMLWKARNAQCWNLRYSPDGSHLWAVVAPEYGMFTVSLDDTPWTFRAPVVTDMVLSPSGDRAAALASDNNTLWQVVVDGKPWRGTYDMAWQPVFSPDGTRVAARVERNGKYVVLLDGAPAAEAFDTAFDPVFSPDGRKLLLRGVRNGKAVRIVKQLQ,not soluble
3,MGSDKIHHHHHHVKELHESSTIISFKEHTDVNADSILELSFLKLQTKDSCLVKNVGLIRELNNCLLILDSANSNLYVFNKSGAFVNQIGQKGSGPGEYILLSSFFVDNNKNYIAAIDIAQDKVLYYNATDFSFLYERRLPFSTSCCLQLEDGNLLWNSREYTDSKLSDFYFVVTDSLFDIIDYKMNKEFKSGYTTGPSQMIYKVGTNVFAYTPFDLTIYRVGTSEIVPAHSFSFEGTDIPSLDFLNKTSNQGNSNYLYDLIQSDYISYYCVEETERDLFVCYMKNKEKYIGLYDKNTDRTYNYPIKIFQDQLKVGELNYFSIGSVDDYHVAPLDVLSLKDMAGNGYVFDDKLSELLTISNEEDNSILLFVRIKK,not soluble
4,MGSDKIHHHHHHVKQRVAVIGAGPGGLACAMLLAGRGIDVTVYEKQPIVGGRTSRVQVGDYQFDRGPTFLNMPHILENLFTSIDLDMKDYLDLKALDPMYTLYFNGGKDHFTMTTDRDRMKQTIEQHFPGNGEGYDRFMAEQALKLAKLMPILQTKHDKLTDYLSPRVITALPRLSLGRSLYDVLSDYFTSEELKYAFTFQAKYLGMSAWECPGGFSILSYMEHAYGVHHPIGGMNQIPEAMKRAVEELGGTVHLNTGISQLILDGTTATGVILESGEHVLYDDVVVGADFAHAMNHLVPEGVLKKWSRPKIDRKKFSCSTFMLYLGVNKSFDAPHHTIYFADDYEKNVREMTQTLELSDDFSFYVQNPSIIDSTLAPEGKSSLYVLVPVPNNYSELDWAIEGPKLRRRVLDALEHRSPYTGVEAAIEVEEMFTPDDWEAMGVHQGATFNLGHQLTQMMYFRPHNRFEELEHVYLVGGGTHPGSGLPTIFESARITADLLTSEVGVGK,not soluble
5,MGSDKIHHHHHHVKRRLNPLEAYLVVMSNADRAGGLVLAATPKMKQEHHIKTGSRMYELPTWDKRIIIAPPRMKLYLKVNAMIQAIFRRYVPAEFIHVYSIDECFLDITGSHLLFGSTEEIVRKIQRDILEELRLYVTVGIGDNPLLAKLALDNVAKNRDDGIAEWRYEDVPETIWKIRHLDDVCGIGRRTAIRLQKMGIFNMYQLSQTPPQVLKNAMGVVGEQLYYHAHGIDYSLLNEKYVPVSKSYGKSQILEKDYHIPAEVEIVIREMVEEVAMRLRQNHVDTEVIHLSIGYSKYSIKKGFSHQAKIPSTSSSHALIPYFLQLFRRYDEREPVRSIAISCGKLTLKTGLQLNLFEDATRTLNHEQLEVTVDKIRTRYGFKSLMHASSLLNGATGLKRSEMVGGHKG,not soluble
6,MGSDKIHHHHHHVLIGLSALSFSYRCGLIGRGTPRAVSHPLDIEGVMALASRAGLQSVEFPLSLLPDLSPGRLSALRERLTLCGLTPVADSDIVDVDTLRAHIPAAAMIGAHVLRVLISPVLEGYRRPFTTDWPAHLADVTDRLRAVIDLAAEHNIILAVENHQDATSADLAAICAAVDSPHIGVCFDAVNCLVVGETPYAALERLGPLIRNVHLADYETYPTTQGWRLVRCALGEGDLDIRRLFHLIEHYAPDVACQIELVSHSARHVRILDDDWWQGYPPCDVREVLPVLRLFAQTMRLRDDDWRTPWERGAGEEQISLYEDQQYATSIAYLRTIGILPRL,not soluble
7,MGSDKIHHHHHHVLKELNQLMDHIERHLTEELSGMDIVRITGVSEYHFRRMFSYMSGMTLNEYIRNRRLSQANINLVNQHSVTEVAYEYGYQSIEGFSRAFREWSGFLPSEVIKNKIQKSFPRFTFYIDIKGGVSMEFKIERKSQFHVVGVSKRVPIQFEGVNHSIVELAQSITPQQRQEMQQLADLYPETVLNVSFDFDEGYLEEQGSLTHMIGFATSRQNPYGDLEQITIEDSLWAVFPNTGPFPQMLQETMAKTYAEWLPTSGYELVDLPSILFTNHEDDSLNVYSEVWVPVKEKTTS,not soluble
8,MGSDKIHHHHHHVLVVVPEILDPKVDLVFKKVFGSQENKSILLSFLNAVLNWTGEQKIVDVKILNPYLEPESIDDSVGILDIKLQLENDDLVDVEMQIGNLGNMERRSTYYTCRMFGDQNISGGRYQDLNRVIAINVLDFTRIKNIERYHTKFRLRETQENIDLTDAIEIHFIELPKLRQEMASYTDPLDRWVVFLKGGWNMELLDRLAKEDPAIGQAKQVLEQMASNPRERELYELRRKAILDRNSALYEAKMEGKAEGKAEGQAIILLRLLKKKFGFMPVEMENRVMSMSAEKLQELAEAIFDLGTIDELNNFISR,not soluble
9,MGSDKIHHHHHHVNIQEQFLGSGSRGSYELHLVDRRPKDVLEQAEALPFWKQDYTQLDKGAFSGAVTSVSCQGIQIFREKMNRAVDQLASAPADTYVIGLPTMIEGEATWGMLPVKQDSLITLNKNTELLFRTSHCSEIAAAVISAQRLEEYAALVEWVDLREIMRKVKAVEQISSTIANRLMTSLVGGTRYISDVHESASVKHMWPNFEEDLMSTCLQALVQAKDSINHHYDHRIHRYIVNRVRDFTLLNSCCPLTISELCIELRVSRRTLNHAFLRVLGITPVAYMRNVRLHRVRAELQSAPDSVTSIANVATKWGFWHMSLFSRYYRELFGECPNKTLERTRLHKA,not soluble
10,MGSDKIHHHHHHVSEALLEQAVSDVMPTKLAIIMRGLPGSGKSYWVEQFITSQGIEQAIHIRQHGLFSTDRYFYQQGQYRFNPQKIGQYHQANLTAFIQALARKEPIVICDNTNIAKWEFMAYEAAAKALGYQVKVVLVGQPDNDQHQQLCAQRNQHQVSLAHIQKMAQLFEE,not soluble
11,MGSDKIHHHHHHWARTVWPRLYWFVEGKLYRWLQSFIAYWGYTAGYDVYEYGDDVTTYYRDERVLMMCNHQSTADVPTLMTVLQNKGVASRKTLWLMDVMFRWTPFGIIGNNHGDYFIQQGKATRDKELIRLKKHLHDVFWDRDRRWVILFPEGGFYYKRVESSQSYGKKNGFPHLLYTTLPRMGAVQAILEEVGPRTEDSDEPRERSNSKLKLLQDTVGAIREKKYVKGE,not soluble
12,MGSDKIHHHHHHYATVEPLHINRFDKDLFRLIDTGDTTLQPELIKQYPEMLDIIGKGILNLQTIETPGFFEKMRNYYSEPTLKGLYRDAITQYDSVEDIEKSLGYGFAYLKENFPSMQIPAIYMHVSGFNQNVLVGDSLLSLSIDKYMGKDYPLYQDFFYDSQKLKMQRGLVVPDYLAGWLMSEYPFAGKENVLLDRMIYEGKIKYLLSQALGVPDAAELMGYTEQAYNWCKDNEGTIWKAIIERKHLYTPDQLTTSQYFEDTPTIFPGNDAPGNIGTWIGWQIINQYIKETGSTPEALMQNNDAQEILTASKYKPL,not soluble
13,MGSFQAVAPTRLYRMIADQIAGRIRAGDFPAGGRLPAERELAEQLQVSRASVREALIALEIEGYVEVRVGTGVFVAAPRADGDYGVAPAPQPGHTDIGPFDLLDTRLLLEPECASLAAQKASPAQIAAISSAHAAMSLSDSPGAHDQAFHGAIAAACGNAALAAAISHIWHLSATSPVFSRLEQHFVTTKVWEAAEREHERILAAIVDRDPIRARHAMHDHLVGILARLREDFGSGAIR,not soluble
14,MGSRENLYFQGLEHHHHHHHMKIISKMLVGALALAVTNVYAAELMTKAEFEKVESQYEKIGDISTSNEMSTADAKEDLIKKADEKGADVLVLTSGQTDNKIHGTANIYKKK,soluble
15,MGSSEVSIIPGLQKEEKAAVERRRLHVLKALKKLRIEADEAPVVAVLGSGGGLRAHIACLGVLSEMKEQGLLDAVTYLAGVSGSTWAISSLYTNDGDMEALEADLKHRFTRQEWDLAKSLQKTIQAARSENYSLTDFWAYMVISKQTRELPESHLSNMKKPVEEGTLPYPIFAAIDNDLQPSWQEARAPETWFEFTPHHAGFSALGAFVSITHFGSKFKKGRLVRTHPERDLTFLRGLWGSALGNTEVIREYIFDQLRNLTLKGLWRRAVANAKSIGHLIFARLLRLQESSQGEHPPPEDEGGEPEHTWLTEMLENWTRTSLEKQEQPHEDPERKGSLSNLMDFVKKTGICASKWEWGTTHNFLYKHGGIRDKIMSSRKHLHLVDAGLAINTPFPLVLPPTREVHLILSFDFSAGDPFETIRATTDYCRRHKIPFPQVEEAELDLWSKAPASCYILKGETGPVVMHFPLFNIDACGGDIEAWSDTYDTFKLADTYTLDVVVLLLALAKKNVRENKKKILRELMNVAGLYYPKDSARSCCLA,soluble
16,MGSSHHHHHHGGTGENLYFQGGSGATAQNANPECVGPESPQAGIAPSCQGCPNAAICASAPKGPDPDIPLIRERLAGVKHKVMVVSGKGGVGKSTMTKELAFALGARGLSVGLMDMDICGPSLPRLTGVRGEDAHQSAGGIEPVLVDENVTMMSMHYLLSDKNEAVLFRGPRKNGVIKMFLKDVIWGNLDVLLIDTPPGTSDEHITVNSLLQQTTNGVDGAVLITTPQRVAEADVRREVNFCQKAKLPILGLVENMSGFVCPGCHKESQIFPKEEGGEGRKEGAGVRLSREFDVPLWGEVPLDPQLMKACEEGISFSEYVEKSGMTSSTTLDALFTVADQLIASLGIQVE,not soluble
17,MGSSHHHHHHGGTGENLYFQGGSGLRQFIVPVRQTTQRAGLATPPLFGVQKCYVNMNRSVQTRWEIDSQTASQKRTEYDFDKEQWMKQMRFASMDCIMDPDITPIRYTSVAGVKKAFRRFVTMRKLMDRRPDFDPVQLKELFIHFKTLSHEKSPDCFKTLQRITTHGEADRILKEIKGRMNEDFAKKSWRSLKQQGAKSTYEMEVDSFDLVTCYMGQMSQEDWLQITYRCEFRQRESKEYDWETMMEYPVFEVRLGDGVKAPNTHPFIVVGVLKKDGTRYGKDSQDAADLRKQFDRTGRWF,not soluble
18,MGSSHHHHHHGKTIFVIVPTNEEQVAFLEALAKQDELNFDWQNPPTEPGQPVVILIPSDMVEWFLEMLKAKGIPFTVYVEEGGSENLYFQGGGGGGLQLKSHQRLAEKPRRDAFVPRAYTVEELAQFDGKKKPQVFVGVKGIIYNVSLEWYGPEGPYSAFAGCDSSRQLGKVIVGRDEINADWTTLAPEHLKTLHEWEERFHSKYPAVGWITDPNKNFVKRAASLSP,not soluble
19,MGSSHHHHHHGKTIFVIVPTNEEQVAFLEALAKQDELNFDWQNPPTEPGQPVVILIPSDMVEWFLEMLKAKGIPFTVYVEEGGSENLYFQGGGGGGPFRYQISEYFERQRDGVHVELRRKAVKYYAEMERMHRRQALVNLESIQDDNAPHRLSAVLSVESIQAGHLDQEYNYWYAHERDAIRAEKLMMEIRELKAKMPADSA,not soluble
20,MGSSHHHHHHSSGLVPRGSDYMFKLLLIGNSSVGKTSFLFRYADDSFTPAFVSTVGIDFKVKTVYRHDKRIKLQIWDTAGQERYRTITTAYYRGAMGFLLMYDIANQESFAAVQDWATQIKTYSWDNAQVILVGNKCDLEDERVVPAEDGRRLADDLGFEFFEASAKENINVKQVFERLVDVICEKMNE,soluble
